In the supplement of paper PMC7877785:
± gives the uncertainty stated by the source.

Experiment: self-splicing fitness, log relative to wild type (ln ratio); higher = more splicing; Tetrahymena group I intron in knt gene, E. coli kanamycin selection, DiMSum; sequences stand for … in CUCUCU…GGAGGGAAAAGUUAUCAGGCAUGCACCUGGUAGCUAGUCUUUAAACCAAUAGAUUGCAUCGGUUUAAAAGGCAAGACCGUCAAAUUGCGGGAAAGGGGUCAACAGCCGUUCAGUACCAAGUCUCAGGGGAAACUUUGAGAUGGCCUUGCAAAGGGUAUGGUAAUAAGCUGACGGACAUGGUCCUAACCACGCAGCCAAGUCCUAAGUCAACAGAUCUUCUGUUGAUAUGGAUGCAGUUCACAGACUAAAUGUCGGUCGGGGAAGAUGUAUUCUUCUCAUAAGAUAUAGUCGGACCUCUCCUUAAUGGGAGCUAGCGGAUGAAGUGAUGCAACACUGGAGCCGCUGGGAACUAAUUUGUAUGCGAAAGUAUAUUGAUUAGUUUUGGAGUACUCGUGGUCG
Outline: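 Pooled colonies went to amplicon sequencing on an Illumina HiSeq 2500 after six replicate transformations. The plates were LB agar with 100 μg/mL carbenicillin, 50 μM IPTG and 0.2% rhamnose, with or without 25 μg/mL kanamycin, incubated overnight at 37°C or 30°C. The E. coli BL21(DE3) library had all eight P1ex-region intron nucleotides randomised, the intron placed in the knt kanamycin-resistance gene on pET-22b(+). DiMSum fitness is the error-weighted combination of replicate fold changes, kanamycin against none, normalised to wild type.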

| Sequence | self-splicing fitness (ln) (30 °C) | self-splicing fitness (ln) (37 °C) |
| --- | --- | --- |
| CUCAAGCAAUAUUACGCGCU | -2.36 ± 0.18 | -3.39 ± 0.32 |
| UUUGAGCAAUAUUACGAUGA | -0.96 ± 0.19 | -0.161 ± 0.21 |
| CGAAAGCAAUAUUACGGAUA | -2.86 ± 0.18 | -3 ± 0.19 |
| ACCAAGCAAUAUUACGCCGG | -2.33 ± 0.13 | -0.125 ± 0.13 |
| GGCAAGCAAUAUUACGACUG | -1.02 ± 0.12 | -0.532 ± 0.17 |
| AGAAAGCAAUAUUACGAGGA | -3.15 ± 0.15 | -2.71 ± 0.16 |
| UUUUAGCAAUAUUACGCUUC | – | -1.81 ± 0.34 |
| UUACAGCAAUAUUACGUUAG | -0.713 ± 0.086 | 0.208 ± 0.12 |
| GCUGAGCAAUAUUACGCCGU | – | -0.103 ± 0.24 |
| AGUGAGCAAUAUUACGGGGG | -3.05 ± 0.31 | -2.87 ± 0.3 |
| AAGGAGCAAUAUUACGCGCU | -3.5 ± 0.44 | -1.5 ± 0.4 |
| AUAGAGCAAUAUUACGCAUG | -1.85 ± 0.16 | -1.42 ± 0.23 |
| UGUCAGCAAUAUUACGCGAU | -3.41 ± 0.4 | -2.2 ± 0.34 |
| UCAGAGCAAUAUUACGUACU | -3.35 ± 0.34 | -2.24 ± 0.3 |
| CUGUAGCAAUAUUACGCCUU | -3.46 ± 0.35 | -2.74 ± 0.3 |
| UGUCAGCAAUAUUACGAGAG | -3.21 ± 0.23 | -2.58 ± 0.2 |
| GCUGAGCAAUAUUACGAAUA | -2.55 ± 0.29 | -1.53 ± 0.39 |
| UUUCAGCAAUAUUACGCACA | -0.372 ± 0.12 | 0.127 ± 0.15 |
| CCCCAGCAAUAUUACGUAAC | -5 ± 0.27 | -2.67 ± 0.18 |
| CCAGAGCAAUAUUACGUAUA | – | -2.35 ± 0.29 |
| UGAAAGCAAUAUUACGGACA | -0.0695 ± 0.088 | -0.28 ± 0.096 |
| ACAGAGCAAUAUUACGGGUG | -2.96 ± 0.15 | -1.43 ± 0.12 |
| CGGAAGCAAUAUUACGCACU | -2.24 ± 0.13 | -0.396 ± 0.11 |
| UAUGAGCAAUAUUACGGAUC | -3.84 ± 0.44 | -2.19 ± 0.41 |
| AGCCAGCAAUAUUACGAGAG | -4.55 ± 0.27 | -3.02 ± 0.21 |

| Sequence | self-splicing fitness (ln) (30 °C) | self-splicing fitness (ln) (37 °C) |
| --- | --- | --- |
| UCUAAGCAAUAUUACGUGUG | -1.02 ± 0.075 | -0.603 ± 0.1 |
| GGUGAGCAAUAUUACGUCCA | -2.91 ± 0.24 | -2.07 ± 0.096 |
| UAUAAGCAAUAUUACGUUAA | -2.59 ± 0.15 | -1.5 ± 0.14 |
| GUUUAGCAAUAUUACGUUAG | -2.24 ± 0.21 | -0.81 ± 0.18 |
| GUAUAGCAAUAUUACGGGUC | -1.89 ± 0.2 | -1.62 ± 0.39 |
| AAGCAGCAAUAUUACGAACA | -1.56 ± 0.13 | -0.603 ± 0.13 |
| CCUAAGCAAUAUUACGAUCC | -3.83 ± 0.29 | – |
| UAUGAGCAAUAUUACGCAUA | – | -2.21 ± 0.42 |
| GUUAAGCAAUAUUACGAUUC | 0.0872 ± 0.085 | -0.608 ± 0.11 |
| AGUUAGCAAUAUUACGUCUU | -0.214 ± 0.096 | 0.541 ± 0.13 |
| GUAGAGCAAUAUUACGGGAG | -3.15 ± 0.47 | -1.85 ± 0.38 |
| GGAUAGCAAUAUUACGCAGA | -2.53 ± 0.25 | -1.58 ± 0.21 |
| UGUGAGCAAUAUUACGUGUU | -3.8 ± 0.25 | -2.59 ± 0.25 |
| CCCGAGCAAUAUUACGGUGG | -3.06 ± 0.13 | -3.2 ± 0.18 |
| ACUCAGCAAUAUUACGCCAC | -2.88 ± 0.21 | – |
| ACACAGCAAUAUUACGUUCU | -0.986 ± 0.06 | -0.532 ± 0.068 |
| UUAUAGCAAUAUUACGACAU | -2.471 ± 0.021 | -1.55 ± 0.036 |
| AGUCAGCAAUAUUACGCGCG | 0.157 ± 0.12 | -0.374 ± 0.13 |
| CGUAAGCAAUAUUACGUAUG | -2.17 ± 0.08 | -0.311 ± 0.072 |
| GAUGAGCAAUAUUACGCCAG | -3.63 ± 0.22 | -3.07 ± 0.4 |
| ACCCAGCAAUAUUACGCUAG | -2.81 ± 0.1 | -1.77 ± 0.12 |
| AUUGAGCAAUAUUACGAGAU | -3.73 ± 0.35 | -1.11 ± 0.26 |
| UACUAGCAAUAUUACGUAAU | -2.63 ± 0.17 | -1.93 ± 0.22 |
| GGCAAGCAAUAUUACGUAAU | 0.0253 ± 0.063 | 0.562 ± 0.074 |
